Target: T1, HER2 epitope peptide (extracellular juxtamembrane region) (human, UniProt P04626)
T1 chain: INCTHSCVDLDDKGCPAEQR
Assay: bead-bound peptide pull-down, HPLC detection

B1: HB5 (FITC-labeled) (ssDNA)
DNA: AACCGCCCAAATCCCTAAGAGTCTGCACTTGTCATTTTGTATATGTATTTGGTTTTTGGCTCTCACAGACACACTACACACGCACA
Kd: 34.7 nM

B2: HB5-FITC-PL-Peptide probe (ssDNA)
DNA: AACCGCCCAAATCCCTAAGAGTCTGCACTTGTCATTTTGTATATGTATTTGGTTTTTGGCTCTCACAGACACACTACACACGCACA
modifications: 5'-thiol-C6 conjugated via maleimide to …-PL-K(FITC)FK-Mal (PL = photocleavable o-nitrobenzyl linker)
Kd: 67.4 nM
